# Laboratory results as given in patent US11485776B2, “Antibodies against infectious diseases” (priority 2015, dated 2022).
# Entries after “also recorded” stand apart in the source; their conditions may differ.
# B1: CaS1 scFv: anti-CaENO1 scFv monoclonal antibody from chicken phage library; light chain SEQ ID NO:11, heavy chain SEQ ID NO:12 (antibody, V domains shown)
# VH: TVTLDESGGGLQTPRGALSLVCKASGFTFIDYGMQWVRQAPGKGLEWVAGIGSSGSSTNYGAAVKGRATISRDDGQSTVRLQLNNLRAEDTGTYYCAKSAGGYCVNGAGCNGGSIDAWGHGTEVIVSS
# VL: ALTQPSSVSANLGGTVKITCSGGSGSYGWYQQKSPGSAPVTVIYSNNQRPSNIPSRFSGSPSGSTGTLTITGVQADDEAVYFCGSRDSSYVGVFGAGTTLTVL
# modifications: scFv linker; amino acid sequence comprised in a heavy chain of an anti-CaENO1 scFv monoclonal antibody (CaS1); amino acid sequence comprised in a light chain of an anti-CaENO1 scFv monoclonal antibody (CaS1)
# How the values were obtained:
# [1] = system: ENO1 proteins on Candida spp. (C. tropicalis); type: binding
# Text: (§1) (A) The total cell lysates of 5 Candida spp. were visualized on SDS-PAGE (left). After transferred onto the NC membranes, they were probed with purified anti-CaENO1 from 7th immunized chicken (1:3,000) (middle), or with CaS1 scFv (right) as described in material and methods. Lanes 1-6 in (A) contained the total cell lysates of C. albicans, C. krusei, C. tropicalis, C. parapsilosis and C. glabrate and purified recombinant CaENO1, respectively. […] (C) Total cell lysate from FLU^R and FLU^s and C. tropicalis (lanes 1-5 represent CT6-29, CT11-52, CT6-50, CT12-54, BCRC20520, respectively) by SDS-PAGE (left) and probed with CaS1 scFv by Western blot (right). (D) The purified ENO1 proteins of C. albicans, S. pneumonia, S. aureus, mouse and human were visualized on SDS-PAGE (left). After transferred onto the NC membranes, they were probed with purified CaS1 scFv (right) as described. Lane M contained protein markers.
# (§2) To detect the presence of ENO1 proteins, the purified recombinant ENO1 protein or cell lysates of five Candida spp were subjected to SDS-PAGE analysis, transferred onto nitrocellulose membranes (Amersham Biosciences, UK) and then blocked with 5% skim milk in TBST for 1 hr. The anti-CaENO1 IgY from chicken after 7th immunization (1:3,000) or purified CaS1 scFv antibody (1 μg/ml) were added and incubated for 1 hr at room temperature. After vigorous washings, horseradish peroxidase (HRP)-conjugated polyclonal donkey anti-chicken IgY antibodies (1:3,000) (Bethyl Laboratories, Montgomery, Tex., USA) were added and incubated for an additional 1 hr for detecting the bound IgY antibodies. However, goat anti-chicken light chain antibodies (1:3,000) (Bethyl Laboratories, Montgomery, Tex., USA), followed by HRP-conjugated donkey anti-goat IgG antibodies (Jackson ImmunoResearch, USA) were used for detecting the bound scFv antibodies. After washings as above, the membranes were developed with diaminobenzidine (DAB) or ECL substrate. The ImageQuant LAS4500 was used for ECL intensity detection.
# (§3) This CaS1 scFv was evaluated for its binding activity to different species of Candida. Five common strains of Candida were obtained, total lysate of five species Candida were analyzed on SDS-PAGE (FIG. 6A left) and subsequent Western blot.
# [2] = system: ENO1 proteins on Candida spp. (C. parapsilosis); type: binding
# Text: as §1, §2, §3
# [3] = system: ENO1 proteins on Candida spp. (C. krusei); type: binding
# Text: as §1, §2, §3
# [4] = system: ENO1 proteins on Candida spp. (C. glabrate); type: binding
# Text: as §1, §2, §3
# mENO1 = molecular target: T1, mENO1 (Mus musculus, UniProt P17182); test: Western blot on purified mouse ENO1 protein; type: binding
# T1 construct: His; made in house; host or cells: E. coli BL21 (by 'in the same way')
# T1 sequence (P17182 whole entry): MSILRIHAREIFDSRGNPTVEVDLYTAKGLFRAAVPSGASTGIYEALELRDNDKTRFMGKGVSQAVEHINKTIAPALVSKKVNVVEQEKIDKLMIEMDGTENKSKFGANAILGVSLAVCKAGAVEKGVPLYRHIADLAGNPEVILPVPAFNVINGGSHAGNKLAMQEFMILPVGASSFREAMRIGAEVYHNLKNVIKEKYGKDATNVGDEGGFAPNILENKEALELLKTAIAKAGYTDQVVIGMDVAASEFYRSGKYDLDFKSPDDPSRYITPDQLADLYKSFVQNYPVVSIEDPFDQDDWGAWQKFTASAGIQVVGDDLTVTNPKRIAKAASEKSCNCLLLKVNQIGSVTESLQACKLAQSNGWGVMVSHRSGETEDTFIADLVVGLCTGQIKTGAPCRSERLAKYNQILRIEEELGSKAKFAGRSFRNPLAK
# Text: Lane M contained protein markers.
# The ImageQuant LAS4500 was used for ECL intensity detection.
# CaENO1 = molecular target: T2, CaENO1 (Candida albicans, UniProt P30575); type: binding, C. albicans
# T2 construct: using full-length CaENO1 (1323 bp) as template; His (N); made in house; host or cells: E. coli BL21
# T2 sequence (P30575 whole entry): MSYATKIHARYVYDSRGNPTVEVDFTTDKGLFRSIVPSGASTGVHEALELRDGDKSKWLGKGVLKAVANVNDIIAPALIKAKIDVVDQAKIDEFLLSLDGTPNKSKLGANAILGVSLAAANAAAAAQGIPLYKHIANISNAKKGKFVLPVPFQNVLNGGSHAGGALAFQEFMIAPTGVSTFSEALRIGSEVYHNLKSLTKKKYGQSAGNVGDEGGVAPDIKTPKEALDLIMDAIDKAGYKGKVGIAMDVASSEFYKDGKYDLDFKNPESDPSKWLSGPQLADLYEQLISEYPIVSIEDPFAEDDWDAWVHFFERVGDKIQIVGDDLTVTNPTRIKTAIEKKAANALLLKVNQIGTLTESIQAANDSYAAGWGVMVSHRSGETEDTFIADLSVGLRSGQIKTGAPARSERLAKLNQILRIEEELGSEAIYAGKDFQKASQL
# Method: (A) Purified CaS1 scFv was used to recognize recombinant CaENO1 protein. The CaS1 scFv were used as primary antibody with series dilution. The goat anti-chicken light chain IgG was used as secondary antibody. The HRP conjugated donkey anti-goat IgG was used to decet. (B) OD value was calculated into percentage. […] The goat anti-chicken light chain IgG was used as secondary antibody. The HRP conjugated donkey anti-goat IgG was used to detect. (D) We calculated OD value into percentage.
# The goat anti-chicken light chain IgG was used as secondary antibody. The HRP conjugated donkey anti-goat IgG was used to decet. (B, D) OD value was calculated into percentage. […] ELISA data were represented as mean±SD of the duplicated well.
# After vigorous washings, the bound IgY antibodies were detected by adding HRP-conjugated polyclonal donkey anti-chicken IgY antibodies (1:3,000) (Bethyl Laboratories, Montgomery, Tex., USA) while the bound CaS1 scFv antibodies were detected by goat anti-chicken light chain antibodies (1:3,000) (Bethyl Laboratories, Montgomery, Tex., USA), followed by HRP-conjugated donkey anti-goat IgG antibodies (Jackson ImmunoResearch, USA). After washing as above, a tetramethylbenzidine (TMB) substrate solution (Sigma, USA) was added to the wells for color development. The reaction was stopped with 1 N HCl and optical density was measured at 450 nm using an ELISA plate reader (BioTek Synergy HT). Dissociate constant (KD) was calculated according to the equation, grams/molecular weight (Da)×volume (L)^−1.
# The goat anti-chicken light chain IgG was used as secondary antibody. The HRP conjugated donkey anti-goat IgG was used to decet (see FIGS. 14 (A) and (C)). OD value was calculated into percentage. […] ELISA data were represented as mean±SD of the duplicated well (see FIGS. 14 (B) and (D)).
# [5] = molecular target: T3, ENO1 protein expressed in cell lysates of C. albicans (Candida albicans, UniProt P30575); test: Western blot on total cell lysate of C. albicans; type: binding
# T3 construct: endogenous in cells; host or cells: C. albicans SC 5314 and clinical isolates CA6-17, CA7-26, CA7-3, CA10-50, CA7-30, CA10-65
# T3 sequence (P30575 whole entry): as above
# Text: as §1, with “markers. […]” for “markers.”
# as §3
# C. albicans = test: Flow cytometry of C. albicans, propidium iodide cell death; type: cell-based, C. albicans SC 5314; details: 100 ug antibody, 10^5 cells, 2 hours at 37° C.
# Method: (A) C. albicans SC 5314 were cultured overnight and 10^5 cells were added to each tube with 2 ml YPD medium. Experiment antibodies were added to each tube (1) Anti-CaENO1 IgY (100 ug) (2) Control scFv (100 ug) (3) scFv CaS1 (100 ug) (4) PBS, and cultured 2 hours at 37° C. in an incubator. Goat anti-chicken light chain (1:1500) antibody was used as detected antibody; FITC donkey anti-goat antibody (1:1000) was used as developed antibody to detect the reaction. Propidium iodide (PI) (1 ug/ml) was used to detect cell death. (B) Quantification of flow cytometry result in the panel A (*, p<0.05;**, p<0.01). Flow cytometry is represented as mean±SD of the duplicated experiment.
# Anti-CaENO1 IgY, scFv CaS1 and control scFv were contacted with C. albicans and then subjected to flow cytometry assay. Anti-CaENO1 IgY, scFv CaS1 and control scFv show 89.7+/−2.8%, 46.64+/−3.1% and 23+/−2.3% FITC fluorescence reaction (FIG. 7A), representing that the antibody can bind to alpha-enolase on the surface of C. albicans.
molecule,measurement,setting,value
B1,Binding to ENO1 in total cell lysate of C. tropicalis (Western blot),[1],specifically recognized; also recorded: reacted
same,Binding to fluconazole resistance and susceptible C. tropicalis from clinic (Western blot),[1],binds; also recorded: can bind
same,Binding to ENO1 in total cell lysate of C. parapsilosis (Western blot),[2],cannot react
same,Binding to fluconazole resistance and susceptible C. parapsilosis from clinic (Western blot),[2],not
same,Binding to ENO1 in total cell lysate of C. krusei (Western blot),[3],cannot react
same,Binding to ENO1 in total cell lysate of C. glabrate (Western blot),[4],cannot react
same,Binding to fluconazole resistance and susceptible C. glabrate from clinic (Western blot),[4],not
same,Binding to purified mENO1 (Western blot),mENO1,very little; also recorded: weak cross reactivity
same,Binding activity to recombinant CaENO1 on ELISA,CaENO1,concentration dependent
same,KD by ELISA,"CaENO1; recombinant CaENO1 coated, KD or EC50 from OD percentage",0.498 µg/mL
same,Kd,"CaENO1; recombinant CaENO1 coated, KD or EC50 from OD percentage, read-out: KD by ELISA",18.8 nM
same,Binding to fluconazole resistance and susceptible C. albicans from clinic (Western blot),[5],binds; also recorded: can bind
same,Binding to ENO1 in total cell lysate of C. albicans (Western blot),[5]; C. albicans SC 5314 lysate,specifically recognized; also recorded: reacted
same,mortality rate of C. albicans (propidium iodide),C. albicans,37+/−0.8%
